Blank lines part the entries; values can stand above or below the binder they belong to.
Biological target: mTOR (human, UniProt P42345 1-2549)
Assay: IP-Western, BE3 or SKGT4 cells

binding result: no binding
B1: Gli3 (other)
chain: MEAQSHSSTTTEKKKVENSIVKCSTRTDVSEKAVASSTTSNEDESPGQTYHRERRNAITMQPQNVQGLSKVSEEPSTSSDERASLIKKEIHGSLPHVAEPSVPYRGTVFAMDPRNGYMEPHYHPPHLFPAFHPPVPIDARHHEGRYHYDPSPIPPLHMTSALSSSPTYPDLPFIRISPHRNPTAASESPFSPPHPYINPYMDYIRSLHSSPSLSMISATRGLSPTDAPHAGVSPAEYYHQMALLTGQRSPYADIIPSAATAGTGAIHMEYLHAMDSTRFSSPRLSARPSRKRTLSISPLSDHSFDLQTMIRTSPNSLVTILNNSRSSSSASGSYGHLSASAISPALSFTYSSAPVSLHMHQQILSRQQSLGSAFGHSPPLIHPAPTFPTQRPIPGIPTVLNPVQVSSGPSESSQNKPTSESAVSSTGDPMHNKRSKIKPDEDLPSPGARGQQEQPEGTTLVKEEGDKDESKQEPEVIYETNCHWEGCAREFDTQEQLVHHINNDHIHGEKKEFVCRWLDCSREQKPFKAQYMLVVHMRRHTGEKPHKCTFEGCTKAYSRLENLKTHLRSHTGEKPYVCEHEGCNKAFSNASDRAKHQNRTHSNEKPYVCKIPGCTKRYTDPSSLRKHVKTVHGPEAHVTKKQRGDIHPRPPPPRDSGSHSQSRSPGRPTQGALGEQQDLSNTTSKREECLQVKTVKAEKPMTSQPSPGGQSSCSSQQSPISNYSNSGLELPLTDGGSIGDLSAIDETPIMDSTISTATTALALQARRNPAGTKWMEHVKLERLKQVNGMFPRLNPILPPKAPAVSPLIGNGTQSNNTCSLGGPMTLLPGRSDLSGVDVTMLNMLNRRDSSASTISSAYLSSRRSSGISPCFSSRRSSEASQAEGRPQNVSVADSYDPISTDASRRSSEASQSDGLPSLLSLTPAQQYRLKAKYAAATGGPPPTPLPNMERMSLKTRLALLGDALEPGVALPPVHAPRRCSDGGAHGYGRRHLQPHDAPGHGVRRASDPVRTGSEGLALPRVPRFSSLSSCNPPAMATSAEKRSLVLQNYTRPEGGQSRNFHSSPCPPSITENVTLESLTMDADANLNDEDFLPDDVVQYLNSQNQAGYEQHFPSALPDDSKVPHGPGDFDAPGLPDSHAGQQFHALEQPCPEGSKTDLPIQWNEVSSGSADLSSSKLKCGPRPAVPQTRAFGFCNGMVVHPQNPLRSGPAGGYQTLGENSNPYGGPEHLMLHNSPGSGTSGNAFHEQPCKAPQYGNCLNRQPVAPGALDGACGAGIQASKLKSTPMQGSGGQLNFGLPVAPNESAGSMVNGMQNQDPVGQGYLAHQLLGDSMQHPGAGRPGQQMLGQISATSHINIYQGPESCLPGAHGMGSQPSSLAVVRGYQPCASFGGSRRQAMPRDSLALQSGQLSDTSQTCRVNGIKMEMKGQPHPLCSNLQNYSGQFYDQTVGFSQQDTKAGSFSISDASCLLQGTSAKNSELLSPGANQVTSTVDSLDSHDLEGVQIDFDAIIDDGDHSSLMSGALSPSIIQNLSHSSSRLTTPRASLPFPALSMSTTNMAIGDMSSLLTSLAEESKFLAVMQ

binding result: no binding
B2: Gli2 (other)
chain: METSASATASEKQEAKSGILEAAGFPDPGKKASPLVVAAAAAAAVAAQGVPQHLLPPFHAPLPIDMRHQEGRYHYEPHSVHGVHGPPALSGSPVISDISLIRLSPHPAGPGESPFNAPHPYVNPHMEHYLRSVHSSPTLSMISAARGLSPADVAQEHLKERGLFGLPAPGTTPSDYYHQMTLVAGHPAPYGDLLMQSGGAASAPHLHDYLNPVDVSRFSSPRVTPRLSRKRALSISPLSDASLDLQRMIRTSPNSLVAYINNSRSSSAASGSYGHLSAGALSPAFTFPHPINPVAYQQILSQQRGLGSAFGHTPPLIQPSPTFLAQQPMALTSINATPTQLSSSSNCLSDTNQNKQSSESAVSSTVNPVAIHKRSKVKTEPEGLRPASPLALTQGQVSGHGSCGCALPLSQEQLADLKEDLDRDDCKQEAEVVIYETNCHWEDCTKEYDTQEQLVHHINNEHIHGEKKEFVCRWQACTREQKPFKAQYMLVVHMRRHTGEKPHKCTFEGCSKAYSRLENLKTHLRSHTGEKPYVCEHEGCNKAFSNASDRAKHQNRTHSNEKPYICKIPGCTKRYTDPSSLRKHVKTVHGPDAHVTKKQRNDVHLRTPLLKENGDSEAGTEPGGPESTEASSTSQAVEDCLHVRAIKTESSGLCQSSPGAQSSCSSEPSPLGSAPNNDSGVEMPGTGPGSLGDLTALDDTPPGADTSALAAPSAGGLQLRKHMTTMHRFEQLKKEKLKSLKDSCSWAGPTPHTRNTKLPPLPGSGSILENFSGSGGGGPAGLLPNPRLSELSASEVTMLSQLQERRDSSTSTVSSAYTVSRRSSGISPYFSSRRSSEASPLGAGRPHNASSADSYDPISTDASRRSSEASQCSGGSGLLNLTPAQQYSLRAKYAAATGGPPPTPLPGLERMSLRTRLALLDAPERTLPAGCPRPLGPRRGSDGPTYGHGHAGAAPAFPHEAPGGGARRASDPVRRPDALSLPRVQRFHSTHNVNPGPLPPCADRRGLRLQSHPSTDGGLARGAYSPRPPSISENVAMEAVAAGVDGAGPEADLGLPEDDLVLPDDVVQYIKAHASGALDEGTGQVYPTESTGFSDNPRLPSPGLHGQRRMVAADSNVGPSAPMLGGCQLGFGAPSSLNKNNMPVQWNEVSSGTVDALASQVKPPPFPQGNLAVVQQKPAFGQYPGYSPQGLQASPGGLDSTQPHLQPRSGAPSQGIPRVNYMQQLRQPVAGSQCPGMTTTMSPHACYGQVHPQLSPSTISGALNQFPQSCSNMPAKPGHLGHPQQTEVAPDPTTMGNRHRELGVPDSALAGVPPPHPVQSYPQQSHHLAASMSQEGYHQVPSLLPARQPGFMEPQTGPMGVATAGFGLVQPRPPLEPSPTGRHRGVRAVQQQLAYARATGHAMAAMPSSQETAEAVPKGAMGNMGSVPPQPPPQDAGGAPDHSMLYYYGQIHMYEQDGGLENLGSCQVMRSQPPQPQACQDSIQPQPLPSPGVNQVSSTVDSQLLEAPQIDFDAIMDDGDHSSLFSGALSPSLLHSLSQNSSRLTTPRNSLTLPSIPAGISNMAVGDMSSMLTSLAEESKFLNMMT

— US20150017651A1 (University of Texas, published 2015)
